Among the data in US20180072815A1 are OD450 Values values, retold here.

For the test, the target named is commercially available anti-Stat3 antibody (Abcam). Briefly: ELISA, antibody coated directly at 1 µg/mL. (In an ELISA, binding on a coated surface is turned into a signal by an enzyme label.)

The substance his-probe (H-3) biotin labeled antibody gave an OD450 Values of 0.018 OD450.
